Reference: patent publication US10577406B2, “FKBP-L polypeptides and uses in angiogenesis-mediated disorders” (ALMAC DISCOVERY LIMITED, priority 2006, dated 2020)
Read-outs that look alike come from different tables or passages of the source.

B1: full length recombinant FKBP-L: recombinant full length his-tagged FKBP-L protein (SEQ ID NO: 1) expressed in BL21 (DE3) (protein, listed as Homo sapiens)
chain: MRGSHHHHHHGMASMTGGQQMGRDLYDDDDKDRWGSMETPPVNTIGEKDTSQPQQEWEKNLRENLDSVIQIRQQPRDPPTETLELEVSPDPASQILEHTQGAEKLVAELEGDSHKSHGSTSQMPEALQASDLWYCPDGSFVKKIVIRGHGLDKPKLGSCCRVLALGFPFGSGPPEGWTELTMGVGPWREETWGELIEKCLESMCQGEEAELQLPGHTGPPVGLTLASFTQGRDSWELETSEKEALAREERARGTELFRAGNPEGAARCYGRALRLLLTLPPPGPPERTVLHANLAACQLLLGQPQLAAQSCDRVLEREPGHLKALYRRGVAQAALGNLEKATADLKKVLAIDPKNRAAQEELGKVVIQGKNQDAGLAQGLRKMFG
modifications: His tag

Assays:
HMEC-1 = assay: in vitro migration assay (wound closure / wound scrape), recombinant protein or peptides added to medium; assay type: cell-based, Human
Procedure: (§1) The in vitro migration assay used in these studies is a modified version of the method described by Ashton et al (1999). HMEC-1 were plated into individual chambers on a glass slide and grown to 90% confluence overnight. The medium was removed and the monolayer wounded. The monolayer was re-supplemented with fresh medium and the required volume of recombinant full length his-tagged FKBP-L protein (SEQ ID NO: 1) was added to give the required final concentration.
The monolayers were incubated for 7 hours after exposure to recombinant FKBP-L protein and then fixed in 4% PBS buffered paraformaldehyde. The extent of “wound” closure was blindly assessed microscopically by an independent investigator and quantified using a calibrated eyepiece graticule (1 mm/100 μm graduation) at 20× magnification (Olympus BX 50). The extent of closure in the FKBP-L treated slides was compared to time matched sham treated controls and the % inhibition of wound closure compared to time matched controls calculated.
The following studies were performed to determine the effect of a full length His-tagged recombinant FKBP-L protein on the wound closure assay measured as a function of time. Again, the in vitro migration assay used in these studies is a modified version of the method described by Ashton et al (1999). HMEC-1 were plated into individual chambers on a glass slide and grown to 90% confluence overnight. The medium was removed and the monolayer wounded. The monolayer was re-supplemented with fresh medium and the required volume of full length his-tagged recombinant FKBP-L (i.e., SEQ ID NO: 1) added to give the required final concentration 750 ngml^−1.
Slides were removed at fixed time points until complete closure of the wound, then fixed in 4% PBS buffered paraformaldehyde. The extent of “wound” closure was blindly assessed microscopically by an independent investigator and quantified using a calibrated eyepiece graticule (1 mm/100 μm graduation) at 20× magnification (Olympus BX 50). The extent of closure in the FKBP-L treated slides was compared to time matched sham treated controls and the % inhibition of wound closure compared to time matched controls calculated.
as §1, with “al. (1999) see supra.” for “al (1999).”, “the following peptides” for “recombinant full length his-tagged FKBP-L protein (SEQ ID NO: 1)”, “achieve a dose range from 10^−14-10^−6 M.” for “give the required final concentration.”
The monolayers were incubated for 7 h and then fixed in 4% PBS buffered paraformaldehyde. The extent of “wound” closure was blindly assessed microscopically by an independent investigator and quantified using a calibrated eyepiece graticule (1 mm/100 μm graduation) at 20× magnification (Olympus BX 50). The extent of closure in the FKBP-L treated slides was compared to time matched sham treated controls and the % inhibition of wound closure compared to time matched controls calculated.
The in vitro migration assay used in these studies is a modified version of the method described by Ashton et al. (1999) see supra. HMEC-1 were plated into individual chambers on a glass slide and grown to 90% confluence overnight. The medium was removed and the monolayers wounded. The monolayer was re-supplemented with fresh medium and the required volume of each peptide (i.e., peptides 1-17, SEQ ID NOS: 12-28; Table 4 below) was added to give the required final concentration (10^−14-10^−6 M).
The monolayers were incubated for 24 h and then fixed in 4% PBS buffered paraformaldehyde. The extent of “wound” closure was blindly assessed microscopically by an independent investigator and quantified using a calibrated eyepiece graticule (1 mm/100 μm graduation) at 20× magnification (Olympus BX 50). […]

rat aortic ring = assay type: cell-based, Male Wistar rats
Procedure: Male Wistar rats were euthanised and the thoracic aorta was aseptically removed and sectioned into 1 cm thick rings. The rings were washed ten times in sterile medium to remove any bacteria and embedded into Matrigel on 24 well plates. The wells were supplemented with 2 ml of medium and increasing concentrations of full-length His-tagged recombinant FKBP-L protein (SEQ ID 1). The plate was incubated for 8 days and post incubation the Matrigel and rings were fixed in 4% PBS buffered paraformaldehyde and stored in PBS. The extent of vessel development was blindly assessed microscopically by an independent investigator and quantified using a calibrated eyepiece graticule (1 mm/100 μm graduation) at 20× magnification (Olympus BX 50). The extent of vessel length, maximum vessel length and number of vessels in each field of view was measured and compared to time matched sham controls and the percent (%) inhibition calculated. Male Wistar rats were euthanised and the thoracic aorta was aseptically removed and sectioned into 1 cm thick rings. The rings were washed ten times in sterile medium to remove any bacteria and embedded into Matrigel on 24 well plates. The wells were supplemented with 2 ml of medium and increasing concentrations of FKBP-L 24mer (SEQ ID NO: 10) and FKBP-L 1-57mer (SEQ ID NO: 6) and recombinant FKBP-L (SEQ ID NO:1). The plate was blindly assessed by an independent investigator and quantified using a calibrated eyepiece graticule (1 mm/100 μm graduation) at 20× magnification (Olympus BX 50). The extent of vessel length, maximum vessel length and number of vessels in each field of view was measured and compared to time matched sham controls and the % inhibition calculated. In order to determine whether the FKBP-L 24mer exerted a permanent or static effect on endothelial cell sprouting the rat aortic ring assay was used. Male Wistar rats were euthanised and the thoracic aorta was aseptically removed and sectioned into 1 cm thick rings. The rings were washed ten times in sterile medium to remove any bacteria and embedded into Matrigel on 24 well plates. The wells were supplemented with 2 ml of medium. The plates were incubated for up to 15 days. Each day the Matrigel rings were photographed and returned to their incubator. Two further experiments were carried out: (A) addition of FKBP-L 24mer to the medium after the vessels had grown for seven days; and (B) addition of FKBP-L 24mer to the medium at the initial embedding stage, with subsequent removal after seven days and replacement with fresh medium for a further seven days. The extent of vessel development was quantified using a calibrated eyepiece graticule (1 mm/100 μm graduation) at 20× magnification (Olympus BX 50), and measured electronically using Lucia imaging software. Vessel length was measured and compared to time matched sham controls and the percent (%) inhibition calculated.

Molecule	potency compared with the full length recombinant protein on a mole/mole basis (HMEC-1; wound scrape, 7 h)	IC50 (rat aortic ring) [nM]	vessel development after addition at day seven (rat aortic ring; 10^−9 M added after vessels had developed for seven days, vs time matched controls)	vessel development, exposure from initial embedding (rat aortic ring; medium supplemented from embedding, seven days)	vessel development after removal of the peptide (rat aortic ring; supplemented medium removed after seven days, fresh medium added)	delay of 50% wound closure versus control (HMEC-1; 750 ngml^−1) [h]	time until 50% wound closure (HMEC-1; 750 ngml^−1, single administration, control 7 hours) [h]	inhibition of HMEC-1 migration into the denuded area of the monolayer compared to time matched controls (HMEC-1; 750 ngml^−1, 7 hours) [%]	time until which the wound remained open (total wound closure) (HMEC-1; 750 ngml^−1, control 16 hours) [h]	optimum concentration for inhibition of migration (HMEC-1; 7 hours) [ngml^−1]	dose effective to prevent cell migration (HMEC-1; FIG. 4 dose response)	inhibition of number of vessels formed (rat aortic ring; 500 ngml^−1 (optimal), 8 days) [%]	inhibition of maximum vessel length compared to time matched controls (rat aortic ring; 1000 ngml^−1, 8 days) [%]	inhibition of mean vessel length compared to time matched controls (rat aortic ring; 1000 ngml^−1, 8 days) [%]	IC50 (rat aortic ring; read-out: IC50, number of vessels) [nM]
H-QIRQQPRDPPTETLELEVSPDPAS-OH [FKBP-L 24mer]	increased potency	0.0002	complete inhibition of vessel development	almost completely inhibited vessel development	continued growth of vessels	–	–	–	–	–	–	–	–	–	–
B1	–	–	–	–	–	9	16	60	34	750	10^−6 M	65	70	63	1.56
